Patent publication US10260060B2, “Genetically modified phenylpyruvate decarboxylase, processes to prepare, and uses thereof” (Dow Global Technologies LLC, priority 2014, dated 2019)

How the values were obtained:
Type in all cases: biochemical, Azospirillum brasilense
[1] = substrate: CCCCCCC(=O)C(=O)O; assay: HTP AbPPDC coupled enzyme assay (ADH6/NADPH), 2-ketoacid decarboxylation kinetics, F532V; conditions: other: pH 6.8, 30° C, 2-ketoacid 0 to 4 mM, Hill equation, mean ± standard error
Procedure: (§1) The evaluation of the AbPPDC variants is performed in two steps using the high-throughput enzyme assay described hereinbelow. Initially, all the variants are tested for activity against a single high concentration (2 mM) of 2-KH and 2-KN (as shown in Table 1). Following the initial evaluation, detailed kinetic analysis is performed on a select number of variants to determine the maximal rate (kcat), substrate concentration yielding half maximal rate (K0.5, equivalent of KM for enzymes following Michaelis-Menten kinetics), and the catalytic efficiency of the enzyme (kcat/K0.5) against 2-KO and 2-KN (as shown in Table 2). AbPPDC variants, having higher specificity (higher kcat/K0.5) for 2-KN, will be efficient in producing octanal and chemicals derived from it inside the cells.
(§2) To evaluate the substrate specificity of the wild type AbPPDC and its variants listed in Table 1, genes of all the proteins are expressed in E. coli cells separately and the protein products are isolated from the cells. The gene sequence of the Azospirillum brasilense phenylpyruvate decarboxylase (GenBank: Accession no. L26240) is downloaded from the NCBI database. Codons of 13 additional amino acids that include six (6) histidines (his) are added upstream of the Met-1 codon of the AbPPDC gene sequence. Such a modification allows expression of a Histidine-tagged AbPPDC having 13 additional amino acids on the N-terminus. The additional amino acids are attached as an aid for purifying the protein in a single step using Ni-NTA chromatography. The entire AbPPDC sequence with 13 additional amino acids (SEQ ID 2) is chemically synthesized and then cloned into the pRSFDuet-1 vector (EMD Biosciences) downstream of the T7 polymerase promoter by Synthetic Genomics, Inc. (San Diego, Calif.). The final vector is sequenced by Synthetic Genomics, Inc. before shipping.
(§3) Genes of the AbPPDC variants listed in Table 1 are either chemically synthesized or generated using New England Biolab's Q5 Site-directed Mutagenesis Kit (cat. no. E0554S) and cloned into the pRSFDuet-1 vector. The pRSFDuet-1 vector containing AbPPDC or the AbPPDC variant gene is transformed into E. coli, AbPPDC or its variant, then expressed and eventually purified, as described below.
(§4) A high-throughput AbPPDC coupled enzyme assay is developed for evaluating the substrate specificity of AbPPDC variants. The assay involves reducing the aldehyde produced from AbPPDC mediated 2-ketoacid decarboxylation, using an alcohol dehydrogenase (ADH6, GenBank: Accession No. NP 014051.3). The initial velocities of the AbPPDC catalyzed reactions are determined from the rates of oxidation of reduced nicotinamide adenine dinucleotide phosphate (NADPH) occurring during the ADH6 catalyzed reduction of aldehyde.
(§5) The HTP screening assay involves incubating 2 mM 2-KH or 2 mM 2-KN with 0.5 mM thiamine diphosphate, 0.35 mM NADPH, 4.7 micrograms (μg) of yeast ADH6 (GenBank: Accession No. NP 014051.3) and 0.3 milligrams per milliliter (mg/mL) bovine serum albumin (BSA) in AbPPDC assay buffer (50 mM 3-(N-morpholino)propanesulfonic acid, pH 6.8, containing 2.5 mM magnesium chloride (MgCl2)) at 30° C. The reaction is started by addition at 30° C. of working enzyme stock containing from 0.5 μg to 3.5 μg of AbPPDC variant diluted in AbPPDC assay buffer containing 1 mg/mL BSA. The plate containing the 200 μL of reaction mixture is centrifuged at 2500×g for 15 sec and the absorbance change of the reaction mixture followed spectrophotometrically at 340 nm on a BioTek™ plate reader, pre-equilibrated at 30° C. Initial velocity of the enzyme reaction is calculated using the rate of NADPH consumption at 340 nm and the extinction coefficient of NADPH (6.22 mM^−1 cm^−1). The activity of all the variants is normalized with the amount of enzyme present in the reaction mixture and expressed as nanomoles per minute per milligram (nmol·min^−1·mg^−1). […]

[2] = substrate: CCCCCCCC(=O)C(=O)O; assay: as above; conditions: other: pH 6.8, 30° C, 2-ketoacid 0 to 4 mM, Hill equation, mean ± standard error
Procedure: as §1, §2, §3, §4, §5

[3] = substrate: CCCCCCC(=O)C(=O)O; assay: HTP AbPPDC coupled enzyme assay (ADH6/NADPH), 2-ketoacid decarboxylation kinetics, Q536L; conditions: other: pH 6.8, 30° C, 2-ketoacid 0 to 4 mM, Michaelis-Menten equation, mean ± standard error
Procedure: as §1, §2, §3, §4, §5

[4] = substrate: CCCCCCCC(=O)C(=O)O; assay: as above; conditions: other: pH 6.8, 30° C, 2-ketoacid 0 to 4 mM, Michaelis-Menten equation, mean ± standard error
Procedure: as §1, §2, §3, §4, §5

[5] = substrate: CCCCCCC(=O)C(=O)O; assay: HTP AbPPDC coupled enzyme assay (ADH6/NADPH), 2-ketoacid decarboxylation kinetics, F532L; conditions: other: pH 6.8, 30° C, 2-ketoacid 0 to 4 mM, Hill equation, mean ± standard error
Procedure: as §1, §2, §3, §4, §5

[6] = substrate: CCCCCCCC(=O)C(=O)O; assay: as above; conditions: other: pH 6.8, 30° C, 2-ketoacid 0 to 4 mM, Hill equation, mean ± standard error
Procedure: as §1, §2, §3, §4, §5

[7] = substrate: CCCCCCC(=O)C(=O)O; assay: HTP AbPPDC coupled enzyme assay (ADH6/NADPH), 2-ketoacid decarboxylation kinetics, Q536G; conditions: other: pH 6.8, 30° C, 2-ketoacid 0 to 4 mM, Hill equation, mean ± standard error
Procedure: as §1, §2, §3, §4, §5

[8] = substrate: CCCCCCCC(=O)C(=O)O; assay: as above; conditions: other: pH 6.8, 30° C, 2-ketoacid 0 to 4 mM, Hill equation, mean ± standard error
Procedure: as §1, §2, §3, §4, §5

[9] = substrate: CCCCCCC(=O)C(=O)O; assay: HTP AbPPDC coupled enzyme assay (ADH6/NADPH), 2-ketoacid decarboxylation kinetics, Q536A; conditions: other: pH 6.8, 30° C, 2-ketoacid 0 to 4 mM, Hill equation, mean ± standard error
Procedure: as §1, §2, §3, §4, §5

[10] = substrate: CCCCCCCC(=O)C(=O)O; assay: as above; conditions: other: pH 6.8, 30° C, 2-ketoacid 0 to 4 mM, Hill equation, mean ± standard error
Procedure: as §1, §2, §3, §4, §5

B1: Azospirillum brasilense phenylpyruvate decarboxylase (AbPPDC) variant F532V, SEQ ID 28 (Azospirillum brasilense; F532V) (protein)
chain: MKLAEALLRALKDRGAQAMFGIPGDFALPFFKVAEETQILPLHTLSHEPAVGFAADAAARYSSTLGVAAVTYGAGAFNMVNAVAGAYAEKSPVVVISGAPGTTEGNAGLLLHHQGRTLDTQFQVFKEITVAQARLDDPAKAPAEIARVLGAARALSRPVYLEIPRNMVNAEVEPVGDDPAWPVDRDALAACADEVLAAMRSATSPVLMVCVEVRRYGLEAKVAELAQRLGVPVVTTFMGRGLLADAPTPPLGTYIGVAGDAEITRLVEESDGLFLLGAILSDTNFAVSQRKIDLRKTIHAFDRAVTLGYHTYADIPLAGLVDALLEGLPPSDRTTRGKEPHAYPTGLQADGEPIAPMDIARAVNDRVRAGQEPLLIAADMGDCLFTAMDMIDAGLMAPGYYAGMGFGVPAGIGAQCVSGGKRILTVVGDGAFQMTGWELGNCRRLGIDPIVILFNNASWEMLRTFQPESAFNDLDDWRFADMAAGMGGDGVRVRTRAELKAALDKAFATRGRFQLIEAMIPRGVLSDTLARVVQGQKRLHAAPRE
notes: made in house; host or cells: E. coli BL21(DE3)
[1]
  K0.5: 2.0 ± 0.1 mM
  kcat: 0.163 ± 0.0033 s⁻¹
  kcat/Km: 80 ± 3.3 M⁻¹ s⁻¹
[2]
  K0.5: 0.89 ± 0.15 mM
  kcat: 0.383 ± 0.033 s⁻¹
  kcat/Km: 450 ± 83 M⁻¹ s⁻¹

B2: Azospirillum brasilense phenylpyruvate decarboxylase (AbPPDC) variant Q536L, SEQ ID 36 (Azospirillum brasilense; Q536L) (protein)
chain: MKLAEALLRALKDRGAQAMFGIPGDFALPFFKVAEETQILPLHTLSHEPAVGFAADAAARYSSTLGVAAVTYGAGAFNMVNAVAGAYAEKSPVVVISGAPGTTEGNAGLLLHHQGRTLDTQFQVFKEITVAQARLDDPAKAPAEIARVLGAARALSRPVYLEIPRNMVNAEVEPVGDDPAWPVDRDALAACADEVLAAMRSATSPVLMVCVEVRRYGLEAKVAELAQRLGVPVVTTFMGRGLLADAPTPPLGTYIGVAGDAEITRLVEESDGLFLLGAILSDTNFAVSQRKIDLRKTIHAFDRAVTLGYHTYADIPLAGLVDALLEGLPPSDRTTRGKEPHAYPTGLQADGEPIAPMDIARAVNDRVRAGQEPLLIAADMGDCLFTAMDMIDAGLMAPGYYAGMGFGVPAGIGAQCVSGGKRILTVVGDGAFQMTGWELGNCRRLGIDPIVILFNNASWEMLRTFQPESAFNDLDDWRFADMAAGMGGDGVRVRTRAELKAALDKAFATRGRFQLIEAMIPRGVLSDTLARFVQGLKRLHAAPRE
notes: as for B1
[3]
  K0.5: 1.34 ± 0.23 mM
  kcat: 0.45 ± 0.0283 s⁻¹
  kcat/Km: 350 ± 67 M⁻¹ s⁻¹
[4]
  K0.5: 1.51 ± 0.26 mM
  kcat: 1.38 ± 0.1 s⁻¹
  kcat/Km: 933 ± 183 M⁻¹ s⁻¹

B3: Azospirillum brasilense phenylpyruvate decarboxylase (AbPPDC) variant F532L, SEQ ID 30 (Azospirillum brasilense; F532L) (protein)
chain: MKLAEALLRALKDRGAQAMFGIPGDFALPFFKVAEETQILPLHTLSHEPAVGFAADAAARYSSTLGVAAVTYGAGAFNMVNAVAGAYAEKSPVVVISGAPGTTEGNAGLLLHHQGRTLDTQFQVFKEITVAQARLDDPAKAPAEIARVLGAARALSRPVYLEIPRNMVNAEVEPVGDDPAWPVDRDALAACADEVLAAMRSATSPVLMVCVEVRRYGLEAKVAELAQRLGVPVVTTFMGRGLLADAPTPPLGTYIGVAGDAEITRLVEESDGLFLLGAILSDTNFAVSQRKIDLRKTIHAFDRAVTLGYHTYADIPLAGLVDALLEGLPPSDRTTRGKEPHAYPTGLQADGEPIAPMDIARAVNDRVRAGQEPLLIAADMGDCLFTAMDMIDAGLMAPGYYAGMGFGVPAGIGAQCVSGGKRILTVVGDGAFQMTGWELGNCRRLGIDPIVILFNNASWEMLRTFQPESAFNDLDDWRFADMAAGMGGDGVRVRTRAELKAALDKAFATRGRFQLIEAMIPRGVLSDTLARLVQGQKRLHAAPRE
notes: as for B1
[5]
  K0.5: 1.6 ± 0.1 mM
  kcat: 0.217 ± 0.005 s⁻¹
  kcat/Km: 137 ± 5 M⁻¹ s⁻¹
[6]
  K0.5: 0.94 ± 0.27 mM
  kcat: 0.5 ± 0.083 s⁻¹
  kcat/Km: 583 ± 200 M⁻¹ s⁻¹

B4: Azospirillum brasilense phenylpyruvate decarboxylase (AbPPDC) variant Q536G, SEQ ID 32 (Azospirillum brasilense; Q536G) (protein)
chain: MKLAEALLRALKDRGAQAMFGIPGDFALPFFKVAEETQILPLHTLSHEPAVGFAADAAARYSSTLGVAAVTYGAGAFNMVNAVAGAYAEKSPVVVISGAPGTTEGNAGLLLHHQGRTLDTQFQVFKEITVAQARLDDPAKAPAEIARVLGAARALSRPVYLEIPRNMVNAEVEPVGDDPAWPVDRDALAACADEVLAAMRSATSPVLMVCVEVRRYGLEAKVAELAQRLGVPVVTTFMGRGLLADAPTPPLGTYIGVAGDAEITRLVEESDGLFLLGAILSDTNFAVSQRKIDLRKTIHAFDRAVTLGYHTYADIPLAGLVDALLEGLPPSDRTTRGKEPHAYPTGLQADGEPIAPMDIARAVNDRVRAGQEPLLIAADMGDCLFTAMDMIDAGLMAPGYYAGMGFGVPAGIGAQCVSGGKRILTVVGDGAFQMTGWELGNCRRLGIDPIVILFNNASWEMLRTFQPESAFNDLDDWRFADMAAGMGGDGVRVRTRAELKAALDKAFATRGRFQLIEAMIPRGVLSDTLARFVQGGKRLHAAPRE
notes: as for B1
[7]
  K0.5: 1.9 ± 0.2 mM
  kcat: 0.183 ± 0.013 s⁻¹
  kcat/Km: 96.7 ± 10 M⁻¹ s⁻¹
[8]
  K0.5: 0.76 ± 0.02 mM
  kcat: 0.35 ± 0 s⁻¹
  kcat/Km: 467 ± 17 M⁻¹ s⁻¹

B5: Azospirillum brasilense phenylpyruvate decarboxylase (AbPPDC) variant Q536A, SEQ ID 34 (Azospirillum brasilense; Q536A) (protein)
chain: MKLAEALLRALKDRGAQAMFGIPGDFALPFFKVAEETQILPLHTLSHEPAVGFAADAAARYSSTLGVAAVTYGAGAFNMVNAVAGAYAEKSPVVVISGAPGTTEGNAGLLLHHQGRTLDTQFQVFKEITVAQARLDDPAKAPAEIARVLGAARALSRPVYLEIPRNMVNAEVEPVGDDPAWPVDRDALAACADEVLAAMRSATSPVLMVCVEVRRYGLEAKVAELAQRLGVPVVTTFMGRGLLADAPTPPLGTYIGVAGDAEITRLVEESDGLFLLGAILSDTNFAVSQRKIDLRKTIHAFDRAVTLGYHTYADIPLAGLVDALLEGLPPSDRTTRGKEPHAYPTGLQADGEPIAPMDIARAVNDRVRAGQEPLLIAADMGDCLFTAMDMIDAGLMAPGYYAGMGFGVPAGIGAQCVSGGKRILTVVGDGAFQMTGWELGNCRRLGIDPIVILFNNASWEMLRTFQPESAFNDLDDWRFADMAAGMGGDGVRVRTRAELKAALDKAFATRGRFQLIEAMIPRGVLSDTLARFVQGAKRLHAAPRE
notes: as for B1
[9]
  K0.5: 0.72 ± 0.02 mM
  kcat: 0.333 ± 0.0033 s⁻¹
  kcat/Km: 450 ± 17 M⁻¹ s⁻¹
[10]
  K0.5: 0.52 ± 0.03 mM
  kcat: 0.5 ± 0.017 s⁻¹
  kcat/Km: 967 ± 67 M⁻¹ s⁻¹
